From PMC9162458, “Divergent binding mode for a protozoan BRC repeat to RAD51” (Biochemical Journal, 2022)
Ends that are not written are not given here.

Biological target: T1, LiRAD51^ATPase (Leishmania infantum RAD51 ATPase domain, residues 134–386) (Leishmania infantum)
T1 construct: RAD51 of Leishmania infantum, ATPase domain, residues 134-386; Vector pHAT2 (Addgene #112583); No removal of the His-tag is described; also called monomeric LiRAD51^ATPase; LiRAD51 ATPase domain; source: E. coli (T7Express or BL21(DE3)); purified (Ni-NTA, Superdex 75 SEC) for FP and ITC; in lysate for the pull-down
Assay: fluorescence polarisation; competition: 5 nM Fluor-NCys-LiBRC1 probe with 500 nM LiRAD51^ATPase, GB1-LiBRC repeats in serial dilutions; KD estimated from the fitted IC50; 50 mM Tris pH 8.0, 150 mM NaCl, 100 mM Li2SO4, 1% BSA, 0.1% Tween-20
Conditions: both partners purified

| Binder | Kd [nM] |
| --- | --- |
| AAAPPLVPTLFSTASGKPVTVRRESLQKVAERLGDLAA (domain or fragment, not fully specified (N-terminus); also: GB1 fusion) [LiBRC1.3 (LiBRC1 with extended termini, GB1 fusion)] | 310 |
| GB1-RVPTLFETGRGKAVTVQKRSLDKAEASMDSLEA-His8 (domain or fragment) [GB1-LiBRC2-His8 (BRC repeat 2 of Leishmania infantum BRCA2 fused to GB1)] | 13600 |
| LVPTLFSTASGKPVTVRRESLQKVAERLGDLAAPDME (domain or fragment, not fully specified (N-terminus); also: GB1 fusion) [LiBRC1.2 (LiBRC1 with extended termini, GB1 fusion)] | 190 |
